Results published in paper PMC9482650, “Quantitative fragmentomics allow affinity mapping of interactomes” (Nature Communications, 2022).

T1: DFNB31_2, Q9P202
T1 sequence (Q9P202 274-371, limits assumed, looked up): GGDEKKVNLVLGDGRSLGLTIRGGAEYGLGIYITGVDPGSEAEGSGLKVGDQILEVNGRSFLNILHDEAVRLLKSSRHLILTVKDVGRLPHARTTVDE

T2: GRIP1_2, Q9Y3R0
T2 sequence (Q9Y3R0 145-248, limits assumed, looked up): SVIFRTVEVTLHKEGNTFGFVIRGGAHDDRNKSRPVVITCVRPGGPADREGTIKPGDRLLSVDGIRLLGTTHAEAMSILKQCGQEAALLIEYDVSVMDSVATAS

T3: GRIP1_7, Q9Y3R0
T3 sequence (Q9Y3R0 999-1096, limits assumed, looked up): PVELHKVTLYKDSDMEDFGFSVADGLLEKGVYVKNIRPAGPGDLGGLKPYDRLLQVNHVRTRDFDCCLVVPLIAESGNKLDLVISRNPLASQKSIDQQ

T4: LRRC7, Q96NW7
T4 sequence (Q96NW7 1440-1537, limits assumed, looked up): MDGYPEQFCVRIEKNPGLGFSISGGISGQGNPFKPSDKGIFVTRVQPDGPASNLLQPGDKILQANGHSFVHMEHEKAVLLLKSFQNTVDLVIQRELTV

T5: MPDZ_10, O75970
T5 sequence (O75970 1624-1722, limits assumed, looked up): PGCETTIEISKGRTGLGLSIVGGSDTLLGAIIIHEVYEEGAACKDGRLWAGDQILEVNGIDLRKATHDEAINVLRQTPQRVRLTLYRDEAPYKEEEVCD

T6: MPDZ_5, O75970
T6 sequence (O75970 695-796, limits assumed, looked up): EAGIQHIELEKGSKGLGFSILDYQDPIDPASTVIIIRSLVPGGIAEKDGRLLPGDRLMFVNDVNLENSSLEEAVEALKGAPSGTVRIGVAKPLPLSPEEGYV

T7: MPP6, Q9NZW5
T7 sequence (Q9NZW5 125-219, limits assumed, looked up): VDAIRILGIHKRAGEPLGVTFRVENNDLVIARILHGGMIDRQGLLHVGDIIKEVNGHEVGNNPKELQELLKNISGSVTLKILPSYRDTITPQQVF

T8: MPP7, Q5T2T1
T8 sequence (Q5T2T1 134-230, limits assumed, looked up): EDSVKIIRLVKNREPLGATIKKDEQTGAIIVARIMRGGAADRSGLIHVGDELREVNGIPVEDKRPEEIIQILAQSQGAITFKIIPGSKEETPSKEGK

T9: RADIL, Q96JH8
T9 sequence (Q96JH8 971-1071, limits assumed, looked up): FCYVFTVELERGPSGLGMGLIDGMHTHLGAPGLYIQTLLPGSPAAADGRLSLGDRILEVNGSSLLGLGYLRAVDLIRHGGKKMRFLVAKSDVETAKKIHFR

T10: RAPGEF6, Q8TEU7
T10 sequence (Q8TEU7 525-625, limits assumed, looked up): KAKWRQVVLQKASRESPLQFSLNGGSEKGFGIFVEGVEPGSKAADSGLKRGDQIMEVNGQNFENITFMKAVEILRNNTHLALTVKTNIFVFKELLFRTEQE

B1: SIPA1, Q96FS4 (peptide)
chain: QLGSPTADLA
B2: WWTR1, Q9GZV5 (peptide)
chain: NKSEPFLTWL
B3: CLDN8, P56748 (peptide)
chain: PSVYSRSQYV
B4: CDK18, Q07002 (peptide)
chain: RGKNRRQSIF

How the values were obtained:
Assay in all cases: holdup assay
Design in all cases: key: below the threshold = too weak to quantify, mostly under pKd 3.1 to 4
Settings in all cases: plain residues with an end cap or a label only (N-terminal biotin on a linker: ado-ado)
[1] = molecular target: CASK, O14936
[2] = molecular target: T1, DFNB31_2, Q9P202
[3] = molecular target: DLG4_3, P78352
[4] = molecular target: FRMPD2_3, Q68DX3
[5] = molecular target: FRMPD4, Q14CM0
[6] = molecular target: GIPC2, Q8TF65
[7] = molecular target: T2, GRIP1_2, Q9Y3R0
[8] = molecular target: T3, GRIP1_7, Q9Y3R0
[9] = molecular target: GRIP2_6, Q9C0E4
[10] = molecular target: HTRA2, O43464
[11] = molecular target: IL16_1, Q14005
[12] = molecular target: Inadl_2, Q8NI35
[13] = molecular target: Inadl_4, Q8NI35
[14] = molecular target: LDB3, O75112
[15] = molecular target: T4, LRRC7, Q96NW7
[16] = molecular target: MAGI2_3, Q86UL8
[17] = molecular target: MAGI2_5, Q86UL8
[18] = molecular target: MAGI3_2, Q5TCQ9
[19] = molecular target: MAST1, Q9Y2H9
[20] = molecular target: T5, MPDZ_10, O75970
[21] = molecular target: T6, MPDZ_5, O75970
[22] = molecular target: T7, MPP6, Q9NZW5
[23] = molecular target: T8, MPP7, Q5T2T1
[24] = molecular target: NHERF4_1, Q86UT5-2
[25] = molecular target: PDZRN4_1, Q6ZMN7
[26] = molecular target: PTPN3, P26045
[27] = molecular target: T9, RADIL, Q96JH8
[28] = molecular target: T10, RAPGEF6, Q8TEU7

Chain of FRMPD4, Q14CM0 (Q14CM0 67-160): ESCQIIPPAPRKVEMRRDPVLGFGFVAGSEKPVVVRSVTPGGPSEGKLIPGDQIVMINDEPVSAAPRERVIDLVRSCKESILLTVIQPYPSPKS
Chain of Inadl_2, Q8NI35 (Q8NI35 238-335): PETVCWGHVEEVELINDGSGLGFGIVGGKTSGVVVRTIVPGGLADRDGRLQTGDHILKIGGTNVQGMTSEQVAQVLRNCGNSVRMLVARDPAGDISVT
Chain of IL16_1, Q14005 (Q14005 210-306): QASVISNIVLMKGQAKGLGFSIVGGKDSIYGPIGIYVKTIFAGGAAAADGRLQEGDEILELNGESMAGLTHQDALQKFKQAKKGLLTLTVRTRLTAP
Chain of MAGI2_5, Q86UL8 (Q86UL8 915-1017): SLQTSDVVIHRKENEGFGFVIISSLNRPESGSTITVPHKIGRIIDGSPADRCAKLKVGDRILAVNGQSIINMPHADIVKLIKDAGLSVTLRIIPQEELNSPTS
Chain of PTPN3, P26045 (P26045 505-587): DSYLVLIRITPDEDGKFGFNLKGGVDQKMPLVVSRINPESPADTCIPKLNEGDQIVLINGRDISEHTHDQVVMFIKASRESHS
Chain of DLG4_3, P78352 (P78352 306-403): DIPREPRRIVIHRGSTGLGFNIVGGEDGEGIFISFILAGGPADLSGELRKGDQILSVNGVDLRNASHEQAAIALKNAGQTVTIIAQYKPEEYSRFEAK
Chain of MAGI2_3, Q86UL8 (Q86UL8 600-682): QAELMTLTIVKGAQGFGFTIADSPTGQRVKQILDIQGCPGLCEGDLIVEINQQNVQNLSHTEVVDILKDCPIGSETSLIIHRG
Chain of MAGI3_2, Q5TCQ9 (Q5TCQ9 398-503): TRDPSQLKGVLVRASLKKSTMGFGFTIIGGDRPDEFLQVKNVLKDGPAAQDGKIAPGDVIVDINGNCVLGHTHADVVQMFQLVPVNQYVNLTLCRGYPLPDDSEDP
Chain of HTRA2, O43464 (O43464 355-458): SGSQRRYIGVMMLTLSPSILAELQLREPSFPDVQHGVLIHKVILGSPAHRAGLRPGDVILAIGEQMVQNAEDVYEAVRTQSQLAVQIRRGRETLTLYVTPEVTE
Chain of CASK, O14936 (O14936 487-570): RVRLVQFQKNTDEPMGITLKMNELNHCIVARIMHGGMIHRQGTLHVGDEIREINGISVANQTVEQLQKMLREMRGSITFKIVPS
Chain of MAST1, Q9Y2H9 (Q9Y2H9 962-1065): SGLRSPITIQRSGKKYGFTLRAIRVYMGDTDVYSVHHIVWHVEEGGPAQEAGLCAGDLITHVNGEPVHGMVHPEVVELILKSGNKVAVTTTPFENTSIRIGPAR
Chain of GIPC2, Q8TF65 (Q8TF65 112-203): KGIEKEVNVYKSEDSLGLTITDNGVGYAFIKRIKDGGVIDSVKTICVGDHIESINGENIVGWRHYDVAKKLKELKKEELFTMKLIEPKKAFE
Chain of PDZRN4_1, Q6ZMN7 (Q6ZMN7 213-318): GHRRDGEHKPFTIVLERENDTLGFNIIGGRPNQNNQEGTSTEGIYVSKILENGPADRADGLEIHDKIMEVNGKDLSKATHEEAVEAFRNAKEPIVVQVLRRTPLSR
Chain of LDB3, O75112 (O75112 1-94): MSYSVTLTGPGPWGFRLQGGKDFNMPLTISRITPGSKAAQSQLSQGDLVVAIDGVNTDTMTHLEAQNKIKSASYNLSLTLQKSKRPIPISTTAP
Chain of NHERF4_1, Q86UT5-2 (Q86UT5 other isoform, or with tags, fused parts or gaps): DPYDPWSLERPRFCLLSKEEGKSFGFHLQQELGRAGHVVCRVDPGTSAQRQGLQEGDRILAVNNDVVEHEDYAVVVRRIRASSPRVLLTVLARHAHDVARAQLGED
Chain of Inadl_4, Q8NI35 (Q8NI35 547-651): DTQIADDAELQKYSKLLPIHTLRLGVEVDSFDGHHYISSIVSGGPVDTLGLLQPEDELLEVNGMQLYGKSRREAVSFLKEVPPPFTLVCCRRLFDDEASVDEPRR
Chain of FRMPD2_3, Q68DX3 (Q68DX3 1073-1166): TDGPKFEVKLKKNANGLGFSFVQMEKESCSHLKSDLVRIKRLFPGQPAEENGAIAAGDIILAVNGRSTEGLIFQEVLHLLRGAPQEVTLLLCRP
Chain of GRIP2_6, Q9C0E4 (Q9C0E4 648-740): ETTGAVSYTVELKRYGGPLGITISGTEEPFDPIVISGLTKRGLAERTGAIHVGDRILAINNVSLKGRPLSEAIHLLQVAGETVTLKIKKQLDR

pKd [1]	pKd [2]	pKd [3]	pKd [4]	pKd [5]	pKd [6]	pKd [7]	pKd [8]	pKd [9]	pKd [10]	pKd [11]	pKd [12]	pKd [13]	pKd [14]	pKd [15]	pKd [16]	pKd [17]	pKd [18]	pKd [19]	pKd [20]	also measured	Binder
below the threshold	below the threshold	below the threshold	below the threshold	below the threshold	below the threshold	below the threshold	below the threshold	below the threshold	below the threshold	below the threshold	below the threshold	below the threshold	below the threshold	below the threshold	3.56	below the threshold	below the threshold	3.84	below the threshold	pKd [21]: below the threshold; pKd [22]: below the threshold; pKd [23]: below the threshold; pKd [24]: below the threshold; pKd [25]: below the threshold; pKd [26]: below the threshold; pKd [27]: below the threshold; pKd [28]: below the threshold	B1
below the threshold	below the threshold	below the threshold	below the threshold	5.15	below the threshold	below the threshold	below the threshold	below the threshold	4.51	below the threshold	3.92	below the threshold	4.47	4.31	3.48	3.94	3.89	4.25	below the threshold	pKd [21]: below the threshold; pKd [22]: 3.9; pKd [23]: 3.8; pKd [24]: 4.46; pKd [25]: 4.27; pKd [26]: 4.74; pKd [27]: 5.57; pKd [28]: below the threshold	B2
below the threshold	below the threshold	below the threshold	below the threshold	below the threshold	below the threshold	below the threshold	below the threshold	3.48	4.46	below the threshold	below the threshold	below the threshold	below the threshold	below the threshold	below the threshold	below the threshold	3.52	3.95	below the threshold	pKd [21]: 4.18; pKd [22]: below the threshold; pKd [23]: below the threshold; pKd [24]: 4.03; pKd [25]: below the threshold; pKd [26]: below the threshold; pKd [27]: 5.17; pKd [28]: below the threshold	B3
below the threshold	below the threshold	3.7	below the threshold	3.65	below the threshold	below the threshold	below the threshold	below the threshold	below the threshold	below the threshold	below the threshold	below the threshold	below the threshold	below the threshold	3.64	below the threshold	below the threshold	4.15	3.48	pKd [21]: below the threshold; pKd [22]: below the threshold; pKd [23]: below the threshold; pKd [24]: 3.87; pKd [25]: below the threshold; pKd [26]: 3.77; pKd [27]: below the threshold; pKd [28]: 3.67	B4
